# Assay results as given in publication PMC9160799, “PET Imaging of Acidic Tumor Environment With ^89Zr-labeled pHLIP Probes” (Frontiers in Oncology, 2022).
# Columns and labels:
# [1] = Post-mortem biodistribution, RM-1 tumor model; format: in vivo, male athymic nude mice; settings: male, athymic nude, mouse, in vivo, iv, 1.2 nmol, total radioactivity
# Method: (§1) The media were provided by the MSK Media Preparation Core. […] Another aliquot was diluted with the medium so that 50 µL contained 1×10^6 cells.
# (§2) The imaging and biodistribution studies were performed with male (RM-1 model) and female (4T1 model) athymic nude mice and the kidney-blocking experiments were performed with female SCID mice received from Charles River Laboratories (Stone Ridge, NY). After arrival, the mice were kept in the MSK vivarium for one week before any experimental handling was performed. The animals were allowed free access to water and food, and all animal care and experimental procedures were approved by the Institutional Animal Care and Use Committee (IACUC). For the subcutaneous allografts, a 1-to-1 ratio of Corning Matrigel Matrix and the cell solution was prepared and stored on ice for the injections. Each mouse received a subcutaneous injection of 100 µL (50 µL cell solution, viability > 90%, + 50 µL Matrigel) into the flank on the level of the right shoulder. The injections were performed under anesthesia (2% isoflurane, Baxter Healthcare, Deerfield, IL, USA).
# (§3) The mice were intravenously injected (tail vein) with the radiolabeled pHLIP conjugates (1.2 nmol, 7.4 MBq/200 µCi, 100 µL, in sterile filtered PBS). The activity of the syringe prior to injection and after injection was used to determine the percent of injectate administered.
# (§4) For the biodistribution studies the tumor-bearing mice were randomized before the injections. Only mice with suitable tumors (150–300 mm^3) were utilized. An exception was made for the 120-hour timepoint, for which only mice with smaller tumors (150 mm^3) were selected. The mice were grouped in cohorts of four. At the respective timepoint, the mice were euthanized (by CO2 asphyxiation, followed by cervical dislocation) and their blood was collected by cardiac puncture as a terminal procedure, followed by quick removal of the tumors. After this, the other organs/samples were collected. […] The exact activities of all samples of one mouse were determined by an Capintec® CRC-55tR dose calibrator. These decay-corrected measurements were used to determine a calibration factor and calibrate all counts to the corresponding activities. Activity concentrations were calculated as percentage injected dose per tissue weight (%ID/g wet tissue). All data was processed and visualized using Origin 8.5.
# [2] = format: in vitro ADME, human
# Method: A potential degradation of the compounds was investigated by serum stability assay. For this, 100 µL of the prepared PBS solution (containing 1.2 nmol of pHLIP and 7.4 MBq/200 µCi) was added to 900 µL of human serum (heat inactivated from Millipore Sigma) and incubated for seven days at 37°C. The release of free ^89Zr^4+ was measured by radio instant thin-layer chromatography (as described above) and the degradation of the whole construct was checked by radio high-performance liquid chromatography (HPLC). The analytical reverse-phase HPLC was performed on a Shimadzu system equipped with a Flow Count PIN diode radiodetector from BioScan, a DGU-20A degasser, two LC-20AB pumps, and an SPD-M20A photodiode array detector. A BetaBasic 18 column (150 Å, 5.0 µm, 4.6×150 mm, Thermo Scientific) was used with water (+ 0.1% trifluoroacetic acid) and acetonitrile (+ 0.1% trifluoroacetic acid) as solvents. The gradient started at 5% acetonitrile and increased to 95% over 15 minutes at a constant flowrate of 1 mL/min. The radiochemical purities of all ^89Zr-radiolabeled pHLIP conjugates were greater than 90% over the course of seven days.
# [3] = tested on: 4T1 tumor allografts; parameters: species or system female athymic nude mice; settings: mouse, in vivo, iv
# [4] = tested on: 4T1 tumor allografts; assay: in vivo; parameters: species or system female athymic nude mice; settings: mouse, iv
# Method: as §1, §2, §3, §4
# [5] = in vivo; parameters: species or system female athymic nude mice; settings: female, athymic nude, mouse, iv, 1.2 nmol, total radioactivity
# Method: as §1, §2, §3, §4
structure (smiles),measurement,setting,value
"CC(=O)N(O)CCCCCNC(=O)CCC(=O)N(O)CCCCCNC(=O)CCC(=O)N(O)CCCCCNC(=O)CCN1C(=O)CC(SC[C@@H](NC(=O)[C@@H](C)N)C(=O)N[C@H](CC(=O)O)C(=O)N[C@H](CC(=O)O)C(=O)N[C@H](CCC(N)=O)C(=O)N[C@H](CC(N)=O)C(=O)N2CCC[C@@H]2C(=O)N[C@H](Cc2c[nH]c3ccccc23)C(=O)N[C@H](CCCNC(=N)N)C(=O)N[C@H](C)C(=O)N[C@H](Cc2ccc(O)cc2)C(=O)N[C@H](CC(C)C)C(=O)N[C@H](CC(=O)O)C(=O)N[C@H](CC(C)C)C(=O)N[C@H](CC(C)C)C(=O)N[C@H](Cc2ccccc2)C(=O)N2CCC[C@@H]2C(=O)N[C@@H](C(=O)N[C@H](CC(=O)O)C(=O)N[C@@H](C(=O)N[C@H](CC(C)C)C(=O)N[C@H](CC(C)C)C(=O)N[C@H](CC(C)C)C(=O)N[C@H](CC(=O)O)C(=O)N[C@H](CC(C)C)C(=O)N[C@H](CC(C)C)C(=O)N[C@H](Cc2c[nH]c3ccccc23)C(=O)O)[C@H](C)O)[C@H](C)O)C1=O (stereo partly drawn) (89Zr complex, metal not drawn) [DFO-Cys-Var3]",tissue uptake at 48 h,"[1]; RM-1, male athymic nude mice, 48 h p.i., i.v. 1.2 nmol, 7.4 MBq, gamma counting, mean ± S.D., n=4, read-out: Brain uptake",0.08 ± 0.01 %ID/g
same,tissue uptake at 48 h,"[1]; RM-1, male athymic nude mice, 48 h p.i., i.v. 1.2 nmol, 7.4 MBq, gamma counting, mean ± S.D., n=4, read-out: Pancreas uptake",0.7 ± 0.1 %ID/g
same,tissue uptake at 48 h,[1]; Tibia uptake,1.4 ± 0.1 %ID/g
same,radiochemical purity after incubation in human serum,[2],> 90%
same,biological half-life for total body excretion,[3],415 ± 10 hours
same,(biological) blood clearance half-life,[4],16.0 ± 0.4 hours
same,tissue uptake at 4 h,[5]; Blood uptake,16.1 ± 0.6 %ID/g
same,tissue uptake at 24 h,[5]; Blood uptake,5.8 ± 0.5 %ID/g
same,tissue uptake at 48 h,[5]; Blood uptake,2.2 ± 0.1 %ID/g
same,tissue uptake at 72 h,[5]; Blood uptake,1 ± 0.1 %ID/g
same,tissue uptake at 120 h,[5]; Blood uptake,0.2 ± 0.05 %ID/g
same,tissue uptake at 4 h,[5]; Heart uptake,4.2 ± 0.5 %ID/g
same,tissue uptake at 24 h,[5]; Heart uptake,3 ± 0.4 %ID/g
same,tissue uptake at 48 h,[5]; Heart uptake,2.6 ± 0.1 %ID/g
same,tissue uptake at 72 h,[5]; Heart uptake,1.9 ± 0.2 %ID/g
same,tissue uptake at 120 h,[5]; Heart uptake,1.6 ± 0.3 %ID/g
same,tissue uptake at 4 h,[5]; Kidneys uptake,19.8 ± 3.3 %ID/g
same,tissue uptake at 24 h,[5]; Kidneys uptake,44.3 ± 6.5 %ID/g
same,tissue uptake at 48 h,[5]; Kidneys uptake,47.6 ± 11.5 %ID/g
same,tissue uptake at 72 h,[5]; Kidneys uptake,46.3 ± 8.3 %ID/g
same,tissue uptake at 120 h,[5]; Kidneys uptake,35.3 ± 5.9 %ID/g
same,tissue uptake at 4 h,[5]; Liver uptake,4.8 ± 0.4 %ID/g
same,tissue uptake at 24 h,[5]; Liver uptake,6.1 ± 0.7 %ID/g
same,tissue uptake at 48 h,[5]; Liver uptake,6.6 ± 0.1 %ID/g
same,tissue uptake at 72 h,[5]; Liver uptake,6.7 ± 0.7 %ID/g
same,tissue uptake at 120 h,[5]; Liver uptake,6 ± 0.3 %ID/g
same,tissue uptake at 4 h,[5]; Lungs uptake,11.2 ± 2 %ID/g
same,tissue uptake at 24 h,[5]; Lungs uptake,3.8 ± 0.9 %ID/g
same,tissue uptake at 48 h,[5]; Lungs uptake,2.7 ± 0.3 %ID/g
same,tissue uptake at 72 h,[5]; Lungs uptake,2 ± 0.1 %ID/g
same,tissue uptake at 120 h,[5]; Lungs uptake,1.8 ± 0.3 %ID/g
same,tissue uptake at 24 h,[5]; Pancreas uptake,1.8 ± 0.2 %ID/g
same,tissue uptake at 48 h,[5]; Pancreas uptake,1.5 ± 0.4 %ID/g
same,tissue uptake at 72 h,[5]; Pancreas uptake,1.5 ± 0.2 %ID/g
same,tissue uptake at 120 h,[5]; Pancreas uptake,1.4 ± 0.1 %ID/g
same,tissue uptake at 4 h,[5]; Skin uptake,2.7 ± 0.6 %ID/g
same,tissue uptake at 24 h,[5]; Skin uptake,3.7 ± 0.4 %ID/g
same,tissue uptake at 48 h,[5]; Skin uptake,3.9 ± 0.7 %ID/g
same,tissue uptake at 72 h,[5]; Skin uptake,3.5 ± 0.6 %ID/g
same,tissue uptake at 120 h,[5]; Skin uptake,3.7 ± 0.1 %ID/g
same,tissue uptake at 4 h,[5]; Spleen uptake,2.7 ± 0.5 %ID/g
same,tissue uptake at 24 h,[5]; Spleen uptake,4.1 ± 0.7 %ID/g
same,tissue uptake at 48 h,[5]; Spleen uptake,5.1 ± 2 %ID/g
same,tissue uptake at 72 h,[5]; Spleen uptake,4.3 ± 0.4 %ID/g
same,tissue uptake at 120 h,[5]; Spleen uptake,6.1 ± 1 %ID/g
same,tissue uptake at 4 h,[5]; Tibia uptake,1.8 ± 0.2 %ID/g
same,tissue uptake at 24 h,[5]; Tibia uptake,1.8 ± 0.06 %ID/g
same,tissue uptake at 48 h,[5]; Tibia uptake,1.5 ± 0.4 %ID/g
same,tissue uptake at 72 h,[5]; Tibia uptake,1.6 ± 0.2 %ID/g
same,tissue uptake at 4 h,[5]; Tumor uptake,5.6 ± 0.8 %ID/g
same,tissue uptake at 24 h,[5]; Tumor uptake,9.4 ± 1.2 %ID/g
same,tissue uptake at 48 h,[5]; Tumor uptake,9.7 ± 1.7 %ID/g
same,tissue uptake at 72 h,[5]; Tumor uptake,9.1 ± 1 %ID/g
same,tissue uptake at 120 h,[5]; Tumor uptake,6.8 ± 0.7 %ID/g
